Assay [1] deals with dynein light chain LC8 (DYNLL1/2) (human) (UniProt P63167). Briefly: cryo-EM structure.
For assay [2], the target named is T1, dynein-2 intermediate chain WDR60 (human, UniProt Q8WVS4).
T1 sequence: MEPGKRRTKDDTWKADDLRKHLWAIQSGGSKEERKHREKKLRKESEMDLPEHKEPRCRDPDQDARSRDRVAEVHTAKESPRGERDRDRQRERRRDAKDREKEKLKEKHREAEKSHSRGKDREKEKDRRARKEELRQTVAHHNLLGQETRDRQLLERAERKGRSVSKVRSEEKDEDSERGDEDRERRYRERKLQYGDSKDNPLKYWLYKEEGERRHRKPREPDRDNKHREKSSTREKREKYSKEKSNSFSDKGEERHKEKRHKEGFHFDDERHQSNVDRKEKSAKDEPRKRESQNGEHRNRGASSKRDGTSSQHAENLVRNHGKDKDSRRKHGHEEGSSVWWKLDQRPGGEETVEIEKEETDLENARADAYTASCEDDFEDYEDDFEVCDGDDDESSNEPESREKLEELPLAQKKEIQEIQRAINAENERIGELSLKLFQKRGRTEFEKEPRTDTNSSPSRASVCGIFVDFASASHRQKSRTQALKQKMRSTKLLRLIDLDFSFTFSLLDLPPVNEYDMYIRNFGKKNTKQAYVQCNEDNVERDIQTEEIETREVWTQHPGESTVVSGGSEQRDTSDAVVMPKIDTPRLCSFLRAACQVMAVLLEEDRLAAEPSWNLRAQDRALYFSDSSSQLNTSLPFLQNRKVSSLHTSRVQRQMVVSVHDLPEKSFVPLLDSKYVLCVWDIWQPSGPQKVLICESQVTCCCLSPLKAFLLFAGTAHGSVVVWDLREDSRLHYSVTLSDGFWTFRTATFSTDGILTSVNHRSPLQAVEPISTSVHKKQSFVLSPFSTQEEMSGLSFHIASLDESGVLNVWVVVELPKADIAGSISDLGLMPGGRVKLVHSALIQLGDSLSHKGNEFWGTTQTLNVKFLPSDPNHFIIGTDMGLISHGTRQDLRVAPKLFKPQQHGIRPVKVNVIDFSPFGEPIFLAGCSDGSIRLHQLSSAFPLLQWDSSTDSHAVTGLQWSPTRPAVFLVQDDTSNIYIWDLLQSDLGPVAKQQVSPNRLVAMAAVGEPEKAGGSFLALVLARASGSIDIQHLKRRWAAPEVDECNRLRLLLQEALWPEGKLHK
Briefly: cryo-EM structure.

As usually defined, the stoichiometry N is the number of molecules, sites or subunits per partner or assembly.

In assay [1], “dynein light chain LC8 (DYNLL1/2) (from UniProt P63167) (natural protein)” registered a stoichiometry N of 2.

B1: dynein-2 intermediate chain WDR34 (natural protein)
chain: MATRAQPGPLSQAGSAGVAALATVGVASGPGPGRPGPLQDETLGVASVPSQWRAVQGIRWETKSCQTASIATASASAQARNHVDAQVQTEAPVPVSVQPPSQYDIPRLAAFLRRVEAMVIRELNKNWQSHAFDGFEVNWTEQQQMVSCLYTLGYPPAQAQGLHVTSISWNSTGSVVACAYGRLDHGDWSTLKSFVCAWNLDRRDLRPQQPSAVVEVPSAVLCLAFHPTQPSHVAGGLYSGEVLVWDLSRLEDPLLWRTGLTDDTHTDPVSQVVWLPEPGHSHRFQVLSVATDGKVLLWQGIGVGQLQLTEGFALVMQQLPRSTKLKKHPRGETEVGATAVAFSSFDPRLFILGTEGGFPLKCSLAAGEAALTRMPSSVPLRAPAQFTFSPHGGPIYSVSCSPFHRNLFLSAGTDGHVHLYSMLQAPPLTSLQLSLKYLFAVRWSPVRPLVFAAASGKGDVQLFDLQKSSQKPTVLIKQTQDESPVYCLEFNSQQTQLLAAGDAQGTVKVWQLSTEFTEQGPREAEDLDCLAAEVAA
In the case of B1, in assay [2], the binding result was “binds”.

The values above are taken from PMC6774794 (Nature structural & molecular biology, 2019).
